B1: Fc domain without a β-amyloid fragment: control protein: mouse IgG1 Fc region with no amyloid binding sequence (protein)
chain: VPRDCGCKPCICTVPEVSSVFIFPPKPKDVLTITLTPKVTCVVVDISKDDPEVQFSWFVDDVEVHTAQTQPREEQFNSTFRSVSELPIMHQDWLNGKEFKCRVNSAAFPAPIEKTISKTKGRPKAPQVYTIPPPKEQMAKDKVSLTCMITDFFPEDITVEWQWNGQPAENYKNTQPIMNTNGSYFVYSKLNVQKSNWEAGNTFTCSVLHEGLHNHHTEKSLSHSPGK

Experiments:
[1] = molecular target: T1, Aβ fibrils (aged Aβ 1-40) (Homo sapiens, UniProt P05067); experiment: Fibril binding assay; details: compound at 2 μM-200 fM dilutions; FIG. 9
T1 construct: 200 μM Aβ 1-40 peptide solution; purchased Bachem (Torrance, Calif.)
Description: The ability of a compound of the invention to modulate (e.g., inhibit or promote) the aggregation of natural β-AP when combined with the natural β-AP was examined using the Fibril binding assay. Natural β-AP (β-AP1-40) for use in the aggregation assays is commercially available from Bachem (Torrance, Calif.).
The following materials are needed for the Fibril binding assay: Millipore multifilter apparatus; 12×75 glass tubes; GF/F 25 mm glass filters; PBS/0.1% tween 20 at 4° C. (PBST); Aβ fibrils; radioactive compound; nonradioactive compound; Eppendorf repeat pipettor with tips; labels; forceps; and vacuum.
In this assay, each sample was run in triplicate. […]
The radioactively labeled compound was prepared using standard radioactive safety protocols by making a dilution into a PBS/0.1% tween-20 solution such that there was a final concentration of 20,000 dpm per 100 μL. […] The samples were covered with parafilm and incubated at 37° C. inside plastic radioactivity bags overnight.
To filter the samples, the filters were pre-wetted in a small volume of PBST. […] One minute counts were recorded, the data was plotted, and the Prism program (GraphPAD) was used to analyze the graph, according to the manufacturer's instructions.

amyloid plaques [2] = experiment: Immunohistochemistry: staining of amyloid plaques in brain sections with conditioned medium containing fusion proteins; assay type: binding; details: 20-22 week mice transgenic for Swedish mutation APP and presenilin M146L; COS conditioned medium; developed with anti-mouse antibody
Description: Twenty micron serial coronal brain sections were prepared from 20-22 week mice transgenic for both the Swedish mutation of amyloid precursor protein and presenilin M146L (Ref.). All incubations were performed at room temperature. Sections were washed once in 100 mM Tris, pH 7.4 (Tris buffer), incubated in 70% formic acid for 3 minutes, then washed three times in Tris buffer. Endogenous peroxidase activity was blocked by incubating for 20 minutes in 10% methanol, 3% hydrogen peroxide in 40 mM Tris, pH 7.4. Sections were washed three times in Tris buffer then incubated in 0.85% NaCl, 0.1% Triton X-100, 100 mM Tris pH 7.4 (Tris buffer A) for 5 minutes followed by […]) for 15 minutes. Sections were incubated overnight in conditioned medium from cells expressing secreted fusion proteins or anti-β-amyloid polyclonal antibody diluted 1/1000 in Tris buffer B. Sections were washed twice in Tris buffer A and once in Tris buffer B then incubated with biotin-conjugated anti-mouse antibody raised in donkey from Jackson Laboratories diluted 1/500 in Tris buffer A for 1 hour. Sections were washed twice in Tris buffer A and once in Tris buffer B then incubated with avidin-conjugated horse radish peroxidase using the ABC Immunohistochemistry kit from Vector Laboratories. […]

amyloid plaques [3] = experiment: In vivo clearing of amyloid plaques in a mouse model of Alzheimer's disease; details: direct infusion into the cerebral cortex in one hemisphere; APP Swedish/presenilin M146L transgenic mouse
Description: The ability of Aβ(16-30)-Fc to clear amyloid plaques in a mouse model of Alzheimer's disease was assessed. The fusion protein was administered to a mouse transgenic for both the Swedish mutation of amyloid precursor protein and presenilin M146L by direct infusion into the cerebral cortex in one hemisphere. The mouse was sacrificed and the amount of amyloid in brain sections was determined by Thioflavin S staining.

amyloid plaques, sequence (P05067 672-711 limits assumed): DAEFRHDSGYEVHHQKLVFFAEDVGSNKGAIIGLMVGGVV
T1 sequence (P05067 672-711): as the sequence (P05067 672-711 limits assumed) above

Molecule | inhibition of Aβ aggregation (Fibril binding assay) [1] | staining of amyloid plaques in coronal brain sections (amyloid plaques [2]) | plaque burden at the site of infusion compared to the control hemisphere (Thioflavin S staining) (amyloid plaques [3])
PPI-1019: compound tested in the Fibril binding assay; structure not given | effective inhibitors of Aβ aggregation |  | 
B1 |  | No amyloid plaques were detected | no difference

From patent US20020133001A1, “Therapeutic agents and methods of use thereof for treating an amyloidogenic disease” (Praecis Pharmaceuticals Inc., priority 2000, published 2002)
